What was measured:
Test in all cases: IEDB peptide-MHC binding, purified MHC/competitive/radioactivity; filed as Kd, often an IC50 or EC50 that approximates it; ≥ and ≤ were set here for values at or beyond the usual limits of such assays
Conditions in all cases: source organism: Toxoplasma gondii
HLA-B*07:02 = target: HLA-B*07:02
HLA-B*35:01 = target: HLA-B*35:01
HLA-B*35:03 = target: HLA-B*35:03
HLA-B*42:01 = target: HLA-B*42:01
HLA-B*51:01 = target: HLA-B*51:01
HLA-B*53:01 = target: HLA-B*53:01
HLA-B*54:01 = target: HLA-B*54:01

## HPGSVNEFDF
HLA-B*07:02
  Kd: 3.62 µM
HLA-B*35:01
  Kd: 2.09 µM
HLA-B*35:03
  Kd: 11.5 µM
HLA-B*42:01
  Kd: 0.877 µM
HLA-B*51:01
  Kd: 14.7 µM
HLA-B*53:01
  Kd: 5.52 µM
HLA-B*54:01
  Kd: 0.854 µM
